Data: PMC4860839, “Structures of the APC–ARM domain in complexes with discrete Amer1/WTX fragments reveal that it uses a consensus mode to recognize its binding partners” (Cell Discovery, 2015)

B1: pBTM-APC–ARM (residues 308–789), two-hybrid bait [human] / Amer1-A4 (human, residues 337–455), two-hybrid prey [human] (parent complex)
chain 1: LGTKVEMVYSLLSMLGTHDKDDMSRTLLAMSSSQDSCISMRQSGCLPLLIQLLHGNDKDSVLLGNSRGSKEARARASAALHNIIHSQPDDKRGRREIRVLHLLEQIRAYCETCWEWQEAHEPGMDQDKNPMPAPVEHQICPAVCVLMKLSFDEEHRHAMNELGGLQAIAELLQVDCEMYGLTNDHYSITLRRYAGMALTNLTFGDVANKATLCSMKGCMRALVAQLKSESEDLQQVIASVLRNLSWRADVNSKKTLREVGSVKALMECALEVKKESTLKSVLSALWNLSAHCTENKADICAVDGALAFLVGTLTYRSQTNTLAIIESGGGILRNVSSLIATNEDHRQILRENNCLQTLLQHLKSHSLTIVSNACGTLWNLSARNPKDQEALWDMGAVSMLKNLIHSKHKMIAMGSAAALRNLMANRPAKYKDANIMSPGSSLPSLHVRKQKALEAELDAQHLSETFDNIDNLSPKASHRSKQ
chain 2: MDSMTDSMASGGQRANRDGTKRSSCLVTYQGGGEEMALPDDDDEEEEEEEEVELEEEEEEVKEEEEDDDLEYLWETAQMYPRPNMNLGYHPTTSPGHHGYMLLDPVRSYPGLAPGELLT

Variants of: B1
Experiment: yeast two-hybrid assay (relative β-galactosidase reporter activity); parent: 100

**Q.** chain 1 LGTKVEMVYSLLSMLGTHDKDDMSRTLLAMSSSQDSCISMRQSGCLPLLIQLLHGNDKDSVLLGNSRGSKEARARASAALHNIIHSQPDDKRGRREIRVLHLLEQIRAYCETCWEWQEAHEPGMDQDKNPMPAPVEHQICPAVCVLMKLSFDEEHRHAMNELGGLQAIAELLQVDCEMYGLTNDHYSITLRRYAGMALTNLTFGDVANKATLCSMKGCMRALVAQLKSESEDLQQVIASVLRNLSWRADVNSKKTLREVGSVKALMECALEVKKESTLKSVLSALWNLSAHCTENKADICAVDGALAFLVGTLTYRSQTNTLAIIESGGGILRNVSSLIATNEDHRQILRENNCLQTLLQHLKSHSLTIVSNACGTLWNLSARNPKDQEALWDMGAVSMLKNLIHSKHKKIAMGSAAALRNLMANRPAKYKDANIMSPGSSLPSLHVRKQKALEAELDAQHLSETFDNIDNLSPKASHRSKQ [chain 1 M410K] was tested. Which percent of parent did it give?
**A.** Its percent of parent is 28.1%.

**Q.** For chain 1 LGTKVEMVYSLLSMLGTHDKDDMSRTLLAMSSSQDSCISMRQSGCLPLLIQLLHGNDKDSVLLGNSRGSKEARARASAALHNIIHSQPDDKRGRREIRVLHLLEQIRAYCETCWEWQEAHEPGMDQDKNPMPAPVEHQICPAVCVLMKLSFDEEHRHAMNELGGLQAIAELLQVDCEMYGLTNDHYSITLRRYAGMALTNLTFGDVANKATLCSMKGCMRALVAQLKSESEDLQQVIASVLRKLSWRADVNSKKTLREVGSVKALMECALEVKKESTLKSVLSALWNLSAHCTENKADICAVDGALAFLVGTLTYRSQTNTLAIIESGGGILRNVSSLIATNEDHRQILRENNCLQTLLQHLKSHSLTIVSNACGTLWNLSARNPKDQEALWDMGAVSMLKNLIHSKHKMIAMGSAAALRNLMANRPAKYKDANIMSPGSSLPSLHVRKQKALEAELDAQHLSETFDNIDNLSPKASHRSKQ [chain 1 N243K], which percent of parent is on record?
**A.** The percent of parent was 0.28%.

**Q.** For chain 1 LGTKVEMVYSLLSMLGTHDKDDMSRTLLAMSSSQDSCISMRQSGCLPLLIQLLHGNDKDSVLLGNSRGSKEARARASAALHNIIHSQPDDKRGRREIRVLHLLEQIRAYCETCWEWQEAHEPGMDQDKNPMPAPVEHQICPAVCVLMKLSFDEEHRHAMNELGGLQAIAELLQVDCEMYGLTNDHYSITLRRYAGMALTNLTFGDVANKATLCSMKGCMRALVAQLKSESEDLQQVIASVLENLSWRADVNSKKTLREVGSVKALMECALEVKKESTLKSVLSALWNLSAHCTENKADICAVDGALAFLVGTLTYRSQTNTLAIIESGGGILRNVSSLIATNEDHRQILRENNCLQTLLQHLKSHSLTIVSNACGTLWNLSARNPKDQEALWDMGAVSMLKNLIHSKHKMIAMGSAAALRNLMANRPAKYKDANIMSPGSSLPSLHVRKQKALEAELDAQHLSETFDNIDNLSPKASHRSKQ [chain 1 R242E], which percent of parent is on record?
**A.** The percent of parent was 0.84%.

**Q.** How did the percent of parent turn out when chain 1 LGTKVEMVYSLLSMLGTHDKDDMSRTLLAMSSSQDSCISMRQSGCLPLLIQLLHGNDKDSVLLGNSRGSKEARARASAALHNIIHSQPDDKRGRREIRVLHLLEQIRAYCETCWEWQEAHEPGMDQDKNPMPAPVEHQICPAVCVLMKLSFDEEHRHAMNELGGLQAIAELLQVDCEMYGLTNDHYSITLRRYAGMALTKLTFGDVANKATLCSMKGCMRALVAQLKSESEDLQQVIASVLRNLSWRADVNSKKTLREVGSVKALMECALEVKKESTLKSVLSALWNLSAHCTENKADICAVDGALAFLVGTLTYRSQTNTLAIIESGGGILRNVSSLIATNEDHRQILRENNCLQTLLQHLKSHSLTIVSNACGTLWNLSARNPKDQEALWDMGAVSMLKNLIHSKHKMIAMGSAAALRNLMANRPAKYKDANIMSPGSSLPSLHVRKQKALEAELDAQHLSETFDNIDNLSPKASHRSKQ [chain 1 N200K] was run?
**A.** The percent of parent was 0.28%.

**Q.** Which percent of parent does the source give for chain 1 LGTKVEMVYSLLSMLGTHDKDDMSRTLLAMSSSQDSCISMRQSGCLPLLIQLLHGNDKDSVLLGNSRGSKEARARASAALHNIIHSQPDDKRGRREIRVLHLLEQIRAYCETCWEWQEAHEPGMDQDKNPMPAPVEHQICPAVCVLMKLSFDEEHRHAMNELGGLQAIAELLQVDCEMYGLTNDHYSITLRRYAGMALTNLTFGDVANEATLCSMKGCMRALVAQLKSESEDLQQVIASVLRNLSWRADVNSKKTLREVGSVKALMECALEVKKESTLKSVLSALWNLSAHCTENKADICAVDGALAFLVGTLTYRSQTNTLAIIESGGGILRNVSSLIATNEDHRQILRENNCLQTLLQHLKSHSLTIVSNACGTLWNLSARNPKDQEALWDMGAVSMLKNLIHSKHKMIAMGSAAALRNLMANRPAKYKDANIMSPGSSLPSLHVRKQKALEAELDAQHLSETFDNIDNLSPKASHRSKQ [chain 1 K209E] here?
**A.** Its percent of parent is 3.93%.

**Q.** How did the percent of parent turn out when chain 1 LGTKVEMVYSLLSMLGTHDKDDMSRTLLAMSSSQDSCISMRQSGCLPLLIQLLHGNDKDSVLLGNSRGSKEARARASAALHNIIHSQPDDKRGRREIRVLHLLEQIRAYCETCWEWQEAHEPGMDQDKNPMPAPVEHQICPAVCVLMKLSFDEEHRHAMNELGGLQAIAELLQVDCEMYGLTNDHYSITLRRYAGMALTNLTFGDVANKATLCSMKGCMRALVAQLKSESEDLQQVIASVLRNLSWRADVNSKKTLREVGSVKALMECALEVKKESTLKSVLSALWNLSAHCTENKADICAVDGALAFLVGTLTYRSQTNTLAIIESGGGILRNVSSLIATNEDHRQILRENNCLQTLLQHLKSHSLTIVSNACGTLWNLSARNPKDQEALWDMGAVSMLKNLIHSKHKMIAMGSAAALENLMANRPAKYKDANIMSPGSSLPSLHVRKQKALEAELDAQHLSETFDNIDNLSPKASHRSKQ [chain 1 R420E] was run?
**A.** The percent of parent was 132%.
